Assay results: patent US6987008B1, “Variant nucleoside-5′-phosphate producing enzyme” (priority 1999, dated 2006)
Positions count from the first letter of the chain named. Names may count otherwise.

Tests used:
Type in all cases: biochemical, Escherichia blattae
Conditions in all cases: other: transphosphorylation, 100 mM sodium pyrophosphate, 10–100 mM inosine, pH 4, 30° C., 10 min, cell free extract, Hanes-Woolf
[1] = substrate: OC[C@H]1O[C@@H](n2cnc3c(O)ncnc32)[C@H](O)[C@@H]1O; test: Km for inosine, transphosphorylation by S72E/G74D/I153T mutant EB-AP
Description: (§1) In order to construct a mutant EB-AP for expression in Escherichia coli JM109, a plasmid pEPI340 containing a gene for G74D/I153T mutant EB-AP was used as a template for site-directed mutagenesis utilizing PCR. The nucleotide sequences of these plasmids pEPI305 and pEPI340 are disclosed in Japanese Patent Laid-open (Kokai) No. 10-201481/1998, paragraph (0143), Table 12. […]
(§2) Then, the Km value for inosine in the transphosphorylation reaction by each 3-residue replaced mutant EB-AP was measured under the following conditions. […] After 200 μl of 1 N hydrochloric acid was added to stop the reaction, the precipitates were removed by centrifugation, and the produced 5′-inosinic acid was quantified. The Km value was calculated by the Hanes-Woolf plotting.
(§3) 5′-Inosinic acid was analyzed by high performance liquid chromatography (HPLC) under the following conditions. • Column: Cosmosil 5C18-AR (4.6×150 mm), produced by Nakarai Tesque • Mobile phase: 5 mM potassium phosphate buffer (pH 2.8)/methanol=95/5 • Flow rate: 1.0 ml/min • Temperature: room temperature • Detection: UV 245 nm

[2] = substrate: OC[C@H]1O[C@@H](n2cnc3c(O)ncnc32)[C@H](O)[C@@H]1O; test: Km for inosine, transphosphorylation by S72W/G74D/I153T mutant EB-AP
Description: as §1, §2, §3

[3] = substrate: OC[C@H]1O[C@@H](n2cnc3c(O)ncnc32)[C@H](O)[C@@H]1O; test: Km for inosine, transphosphorylation by S72M/G74D/I153T mutant EB-AP
Description: as §1, §2, §3

[4] = substrate: OC[C@H]1O[C@@H](n2cnc3c(O)ncnc32)[C@H](O)[C@@H]1O; test: Km for inosine, transphosphorylation by A72E/L140F/10-residue replaced mutant EB-AP
[5] = substrate: OC[C@H]1O[C@@H](n2cnc3c(O)ncnc32)[C@H](O)[C@@H]1O; test: Km for inosine, transphosphorylation by S72Y/G74D/I153T mutant EB-AP
Description: as §1, §2, §3

[6] = substrate: OC[C@H]1O[C@@H](n2cnc3c(O)ncnc32)[C@H](O)[C@@H]1O; test: Km for inosine, transphosphorylation by A72E/L140K/10-residue replaced mutant EB-AP
[7] = substrate: OC[C@H]1O[C@@H](n2cnc3c(O)ncnc32)[C@H](O)[C@@H]1O; test: Km for inosine, transphosphorylation by S72V/G74D/I153T mutant EB-AP
Description: as §1, §2, §3

[8] = substrate: OC[C@H]1O[C@@H](n2cnc3c(O)ncnc32)[C@H](O)[C@@H]1O; test: Km for inosine, transphosphorylation by A72E/10-residue replaced mutant EB-AP
Description: (§4) Then, the Km value for inosine in the transphosphorylation reaction by each 3-residue replaced mutant EB-AP was measured under the following conditions. A reaction mixture (1 ml) containing 100 mM sodium pyrophosphate, 100 mM acetate buffer (pH 4.0), 10–100 mM inosine and 100 μl of the cell free extract was incubated at pH 4 and 30° C. for 10 minutes. After 200 μl of 1 N hydrochloric acid was added to stop the reaction, the precipitates were removed by centrifugation, and the produced 5′-inosinic acid was quantified. The Km value was calculated by the Hanes-Woolf plotting.
as §3
(§5) The S72F mutation that decreased the Km value in the highest degree and the S72E mutation that enhanced the activity in the highest degree in Example 12 were introduced into the 10-residue replaced mutant EB-AP. Since Ser72 was replaced with Ala in the 10-residue replaced mutant EB-AP, the A72F and A72E mutations were actually introduced. […] Furthermore, transphosphorylation activity and reaction rate constant were measured by the method described in Example 12. […]

[9] = substrate: OC[C@H]1O[C@@H](n2cnc3c(O)ncnc32)[C@H](O)[C@@H]1O; test: Km for inosine, transphosphorylation by A72F/10-residue replaced mutant EB-AP
Description: as §4, §3, §5

[10] = substrate: OC[C@H]1O[C@@H](n2cnc3c(O)ncnc32)[C@H](O)[C@@H]1O; test: Km for inosine, transphosphorylation by S72F/G74D/I153T mutant EB-AP
Description: as §1, §2, §3

[11] = substrate: OC[C@H]1O[C@@H](n2cnc3c(O)ncnc32)[C@H](O)[C@@H]1O; test: Km for inosine, transphosphorylation by S72D/G74D/I153T mutant EB-AP
Description: as §1, §2, §3

[12] = substrate: OC[C@H]1O[C@@H](n2cnc3c(O)ncnc32)[C@H](O)[C@@H]1O; test: Km for inosine, transphosphorylation by S72T/G74D/I153T mutant EB-AP
Description: as §1, §2, §3

[13] = substrate: OC[C@H]1O[C@@H](n2cnc3c(O)ncnc32)[C@H](O)[C@@H]1O; test: Km for inosine, transphosphorylation by G74D/I153T mutant EB-AP
[14] = substrate: OC[C@H]1O[C@@H](n2cnc3c(O)ncnc32)[C@H](O)[C@@H]1O; test: Km for inosine, transphosphorylation by 10-residue replaced mutant EB-AP

B1: Escherichia blattae acid phosphatase (EB-AP, SEQ ID NO: 2 / 124) mutant S72E/G74D/I153T (Shimwellia blattae; G92D/I171T/S90E) (protein)
chain: LVATGNDTTTKPDLYYLKNSEAINSLALLPPPPAVGSIAFLNDQAMYEQGRLLRNTERGKLAAEDANLSEGDVANAFSGAFGSPITEKDAPALHKLLTNMIEDAGDLATRSAKDHYMRIRPFAFYGVSTCNTTEQDKLSKNGSYPSGHTSTGWATALVLAEINPQRQNEILKRGYELGQSRVICGYHWQSDVDAARVVGSAVVATLHTNPAFQQQLQKAKAEFAQHQKK
[1]
  Km: 40 mM

B2: Escherichia blattae acid phosphatase (EB-AP, SEQ ID NO: 2 / 124) mutant S72W/G74D/I153T (Shimwellia blattae; G92D/I171T/S90W) (protein)
chain: B1 chain with E70W
[2]
  Km: 30 mM

B3: Escherichia blattae acid phosphatase (EB-AP, SEQ ID NO: 2 / 124) mutant S72M/G74D/I153T (Shimwellia blattae; G92D/I171T/S90M) (protein)
chain: B1 chain with E70M
[3]
  Km: 46 mM

B4: Escherichia blattae acid phosphatase (EB-AP, SEQ ID NO: 2 / 124) mutant A72E/L140F/10-residue replaced (L63Q/A65Q/E66A/N69D/S71A/S72A/G74D/T135K/E136D/I153T … (protein)
chain: B1 chain with L61Q, A63Q, E64A, N67D, S69A, T133K, E134D, L138F
[4]
  Km: 9 mM

B5: Escherichia blattae acid phosphatase (EB-AP, SEQ ID NO: 2 / 124) mutant S72Y/G74D/I153T (Shimwellia blattae; G92D/I171T/S90Y) (protein)
chain: B1 chain with E70Y
[5]
  Km: 25 mM

B6: Escherichia blattae acid phosphatase (EB-AP, SEQ ID NO: 2 / 124) mutant A72E/L140K/10-residue replaced (L63Q/A65Q/E66A/N69D/S71A/S72A/G74D/T135K/E136D/I153T … (protein)
chain: B1 chain with L61Q, A63Q, E64A, N67D, S69A, T133K, E134D, L138K
[6]
  Km: 78 mM

B7: Escherichia blattae acid phosphatase (EB-AP, SEQ ID NO: 2 / 124) mutant S72V/G74D/I153T (Shimwellia blattae; G92D/I171T/S90V) (protein)
chain: B1 chain with E70V
[7]
  Km: 40 mM

B8: Escherichia blattae acid phosphatase (EB-AP, SEQ ID NO: 2 / 124) mutant A72E/10-residue replaced (L63Q/A65Q/E66A/N69D/S71A/S72A/G74D/T135K/E136D/I153T with … (protein)
chain: B1 chain with L61Q, A63Q, E64A, N67D, S69A, T133K, E134D
[8]
  Km: 15 mM

B9: Escherichia blattae acid phosphatase (EB-AP, SEQ ID NO: 2 / 124) mutant A72F/10-residue replaced (L63Q/A65Q/E66A/N69D/S71A/S72A/G74D/T135K/E136D/I153T with … (protein)
chain: B1 chain with L61Q, A63Q, E64A, N67D, S69A, E70F, T133K, E134D
[9]
  Km: 9 mM

B10: Escherichia blattae acid phosphatase (EB-AP, SEQ ID NO: 2 / 124) mutant S72F/G74D/I153T (Shimwellia blattae; G92D/I171T/S90F) (protein)
chain: B1 chain with E70F
[10]
  Km: 20 mM

B11: Escherichia blattae acid phosphatase (EB-AP, SEQ ID NO: 2 / 124) mutant S72D/G74D/I153T (Shimwellia blattae; G92D/I171T/S90D) (protein)
chain: B1 chain with E70D
[11]
  Km: 33 mM

B12: Escherichia blattae acid phosphatase (EB-AP, SEQ ID NO: 2 / 124) mutant S72T/G74D/I153T (Shimwellia blattae; G92D/I171T/S90T) (protein)
chain: B1 chain with E70T
[12]
  Km: 50 mM

B13: Escherichia blattae acid phosphatase (EB-AP, SEQ ID NO: 2 / 124) mutant G74D/I153T (Shimwellia blattae; G92D/I171T) (protein)
chain: B1 chain with E70S
[13]
  Km: 100 mM

B14: Escherichia blattae acid phosphatase (EB-AP, SEQ ID NO: 2 / 124) 10-residue replaced mutant L63Q/A65Q/E66A/N69D/S71A/S72A/G74D/T135K/E136D/I153T (Shimwellia … (protein)
chain: B1 chain with L61Q, A63Q, E64A, N67D, S69A, E70A, T133K, E134D
[14]
  Km: 40 mM
